From US7238663B2, “Pre-mixes of GLP-1 and basal insulin” (Eli Lilly and Company, priority 2001, dated 2007)
Values joined by “and” are separate entries in the source; they are usually repeats but may differ in a detail not shown here. Equal entries are not always repeated.

target: T1, human GLP-1 receptor (Homo sapiens, UniProt P43220); experiment: GLP-1 receptor activation (in vitro potency, CRE-BLAM fluorescence assay); assay type: cell-based; conditions: relative in vitro potency from EC50, HEK-293 Aurora CRE-BLAM cells; Val^8-GLP-1(7-37)OH control = 1
T1 construct: expressed in transfected cells; host or cells: HEK-293 Aurora CRE-BLAM cells
T1 sequence (P43220 24-463): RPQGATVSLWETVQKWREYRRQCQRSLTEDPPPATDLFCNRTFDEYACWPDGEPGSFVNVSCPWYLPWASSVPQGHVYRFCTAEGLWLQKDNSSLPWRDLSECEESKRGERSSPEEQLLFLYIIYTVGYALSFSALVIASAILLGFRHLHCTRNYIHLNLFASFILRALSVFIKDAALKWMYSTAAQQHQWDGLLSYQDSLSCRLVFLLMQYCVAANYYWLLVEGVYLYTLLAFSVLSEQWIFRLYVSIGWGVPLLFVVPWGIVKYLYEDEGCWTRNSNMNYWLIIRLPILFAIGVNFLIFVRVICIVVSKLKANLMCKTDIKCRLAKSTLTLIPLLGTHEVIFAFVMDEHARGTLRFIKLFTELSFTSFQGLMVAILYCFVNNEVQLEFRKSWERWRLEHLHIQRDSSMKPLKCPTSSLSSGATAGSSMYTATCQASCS
Excerpt: These HEK-293 cells have stably integrated a DNA vector having a cAmp response element (CRE) driving expression of the β-lactamase (BLAM) gene. […] The assay is further described in Zlokarnik, et al., (1998) Science 279:84-88 (See also Example 1).

Row | Substance | GLP-1 receptor activation relative to Val^8-GLP-1(7-37)OH
1 | Val^8-Glu^22-Ile^33-GLP-1(7-37)OH (HVEGTFTSDVSSYLEEQAAKEFIAWLIKGRG) | 4.7 and 3.8 and 3.4
2 | Val^8-Glu^22-Val^25-GLP-1(7-37)OH (HVEGTFTSDVSSYLEEQAVKEFIAWLVKGRG) | 4.7 and 2.9
3 | Val^8-Trp^16-Glu^22-GLP-1(7-37)OH (HVEGTFTSDWSSYLEEQAAKEFIAWLVKGRG) | 4.9 and 4.6
4 | Val^8-Tyr^16-Glu^22-GLP-1(7-37)OH (HVEGTFTSDYSSYLEEQAAKEFIAWLVKGRG) | 3.6 and 3.8

More lines, now with the values ahead:

Row | GLP-1 receptor activation relative to Val^8-GLP-1(7-37)OH | Substance
5 | 2.4 and 1.9 | Val^8-Cys^16-Lys^26-Arg^34-GLP-1(7-37)OH
6 | 4.2 | Val^8-Cys^16-Lys^26-GLP-1(7-37)OH
7 | 4.9 and 5.8 and 6.7 | Val^8-Glu^22-Val^25-Ile^33-GLP-1(7-37)OH (HVEGTFTSDVSSYLEEQAVKEFIAWLIKGRG)
8 | 5.1 and 5.9 | Val^8-Tyr^18-Glu^22-GLP-1(7-37)OH (HVEGTFTSDVSYYLEEQAAKEFIAWLVKGRG)
9 | 1.1 | Val^8-Val^16-GLP-1(7-37)OH

system: not listed separately; experiment: GLP aggregation assay (turbidity at 350 nm); assay type: physicochemical; conditions: compared to GLP-1(7-37)OH or Val^8-GLP-1(7-37)OH
Method: GLP peptides can be analyzed with respect to their potential to aggregate in solution.
In general, peptides in solution are stirred at elevated temperature in a suitable buffer while recording turbidity at 350 nm as a function of time. Time to the onset of aggregation is measured to quantify the potential of a given GLP molecule to aggregate under these stressed conditions.
A GLP-1 compound is first dissolved under alkaline conditions (pH 10.5) for 30 minutes to dissolve any pre-aggregated material. The solution is then adjusted to pH 7.4 and filtered. Specifically, 4 mg of a lyophilized GLP-1 compound is dissolved in 3 ml of 10 mM phosphate/10 mM citrate. The pH is adjusted to 10.0-10.5 and held for 30 minutes. The solution is adjusted with HCl to pH 7.4 and filtered through a suitable filter, for example a Millex GV syringe filter (Millipore Corporation, Bedford, Mass.). This solution is then diluted to a final sample containing 0.3 mg/mL protein in 10 mM citrate, 10 mM phosphate, 150 mM NaCl, and adjusted to pH 7.4 to 7.5. The sample is incubated at 37° C. in a quartz cuvette. Every five minutes the turbidity of the solution is measured at 350 nm on an AVIV Model 14DS UV-VIS spectrophotometer (Lakewood, N.J.). For 30 seconds prior to and during the measurement the solution is stirred using a magnetic stir bar from Stama Cells, Inc. (Atascadero, Calif.). An increase in OD at 350 nm indicates aggregation of the GLP-peptide. The time to aggregation is approximated by the intersection of linear fits to the pre-growth and growth phase according to method of Drake(Arvinte T, Cudd A, and Drake A F.(1993) J. Bio. Chem. 268, 6415-6422).
The cuvette is cleaned between experiments with a caustic soap solution (e.g., Contrad-70).
The results for a number of GLP-1 compounds are reported in Table 8 as the time in hours required for the compound to aggregate.

Row | Substance | propensity to aggregate in solution
10 | Val^8-Glu^22-GLP-1(7-37)OH (HVEGTFTSDVSSYLEEQAAKEFIAWLVKGRG) | markedly decreased propensity to aggregate
11 | Val^8-Glu^30-GLP-1(7-37)OH (HVEGTFTSDVSSYLEGQAAKEFIEWLVKGRG) | markedly decreased propensity to aggregate
12 | Val^8-His^37-GLP-1(7-37)OH (HVEGTFTSDVSSYLEGQAAKEFIAWLVKGRH) | markedly decreased propensity to aggregate

system: not listed separately; experiment: GLP-1 compound/soluble basal insulin mixtures: clarity and final concentrations by HPLC; assay type: physicochemical; conditions: 2.1 mg in 1 ml 0.01 N HCl, pH 11.3 then adjusted to 4.0
Method: Exendin-4 (160 μg) was dissolved in 100 μL of commercial Lantus® insulin ([…], 3.6378 mg/mL). […] The solution was stored at 5° C. […] The pH was 4.0 Final concentrations of Exendin-4 and Lantus® were determined by reverse phase HPLC to be 0.9 mg/mL Exendin-4 and 3.5 mg/mL Lantus®. Based on known concentrations of excipients in the commercial formulation of Lantus®, the final concentrations of excipients in the mixture were as follows: 2.7 mg/mL m-cresol, 30 μg/mL zinc, and 17 mg/ml glycerol.
Exendin-4 (290 μg) was dissolved in 100 μL of commercial Lantus® insulin U100, 3.6378 mg/mL). […] The pH of the solution was adjusted to 4.0 with NaOH. Final concentrations of Exendin-4 and Lantus® were determined by reverse phase HPLC to be 1.6 mg/mL Exendin-4 and 3.5 mg/mL Lantus®. […]
Exendin-4 (529 μg) was dissolved in 500 μL of commercial Lantus® insulin (U100, 3.6378 mg/mL). […] Final concentrations of Exendin-4 and Lantus® were calculated to be 1 mg/mL Exendin-4 and 3.5 mg/mL Lantus®. […]
A stock solution of Val^8-Glu^22-GLP-1(7-37)OH was prepared by dissolving 2.1 mg of Val^8-Glu^22-GLP-1(7-37)OH in 1 ml of 0.01 N HCl. […] Final concentrations of Val^8-Glu^22-GLP-1(7-37)OH and Lantus® were determined by reverse phase HPLC to be 0.5 mg/mL Val^8-Glu^22-GLP-1(7-37)OH and 2.4 mg/mL Lantus®. […]

Row | Substance | appearance of stock solution
13 | Val^8-Glu^22-GLP-1(7-37)OH (HVEGTFTSDVSSYLEEQAAKEFIAWLVKGRG) | remained clear

same assay, conditions: 4.8 mg in 1.5 ml Stock solution A (glycerin, meta-cresol, zinc), pH 11 then adjusted to 4.0

Row | Substance | appearance of stock solution
14 | Val^8-Glu^22-GLP-1(7-37)OH (HVEGTFTSDVSSYLEEQAAKEFIAWLVKGRG) | remained clear
